# Results reported in US11260115B1, “Peptides and combination of peptides for use in immunotherapy against CLL and other cancers” (immatics biotechnologies GmbH, priority 2015, dated 2022).
# Target: HLA-A*02:01 (Homo sapiens, UniProt P04439, D140Y/D185E/D98H/E176V/E277Q/G131W/G231S/I119V/I121R/I166T/I218V/L300P/L318F/N151K/N90K/P208A/P217A/Q86G/Q94H/R138H/R169H/T345S)
# Assay: MHC binding assay (UV-ligand exchange, β2m ELISA, peptide exchange yield)
# Conditions: binding to HLA-A*02:01
# Outline: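 Peptide-HLA-A*02:01 complexes formed by UV-mediated exchange of a photocleavable ligand; exchange yield measured by streptavidin-capture ELISA detecting β2m with HRP anti-β2m, TMB read at 450 nm. Refolded monomer standards 15-500 ng/ml; samples diluted 100-fold.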
row,Substance,"Peptide Exchange (MHC class I binding score, peptide exchange yield)"
1,107 (ILYNLYDLL; listed as Homo sapiens) [compound 107],“+++” (>50 = +++)
2,205 (GLSQANFTL; listed as Homo sapiens) [compound 205],“+++” (>50 = +++)
3,367 (NLWSLVAKV; listed as Homo sapiens) [compound 367],“+++” (>50 = +++)
4,138 (NLLDIDAPVTV; listed as Homo sapiens) [compound 138],“+++” (>50 = +++)
5,41 (FLDPSLDPLL; listed as Homo sapiens) [compound 41],“+++” (>50 = +++)
6,68 (GLDQQFAGLDL; listed as Homo sapiens) [compound 68],“+” (>10% = +)
7,245 (KIMDYSLLLGV; listed as Homo sapiens) [compound 245],“++++” (>75% = ++++)
8,6 (ALDTLEDDMTI; listed as Homo sapiens) [compound 6],“+++” (>50 = +++)
9,19 (QVMEKLAAV; listed as Homo sapiens) [compound 19],“+++” (>50 = +++)
10,74 (GLLRASFLL; listed as Homo sapiens) [compound 74],“++” (>20% = ++)
11,383 (YLLREWVNL; listed as Homo sapiens) [compound 383],“++++” (>75% = ++++)
12,218 (ALGEEWKGYVV; listed as Homo sapiens) [compound 218],“++” (>20% = ++)
13,75 (GLSIFAQDLRL; listed as Homo sapiens) [compound 75],“++” (>20% = ++)
14,364 (KMDWIFHTI; listed as Homo sapiens) [compound 364],“+++” (>50 = +++)
15,148 (SIVASLITV; listed as Homo sapiens) [compound 148],“+++” (>50 = +++)
16,331 (VLWELAHLPTL; listed as Homo sapiens) [compound 331],“+++” (>50 = +++)
17,314 (LMKDCEAEV; listed as Homo sapiens) [compound 314],“+++” (>50 = +++)
18,334 (YLLEEKIASL; listed as Homo sapiens) [compound 334],“+++” (>50 = +++)
19,220 (ALPEILFAKV; listed as Homo sapiens) [compound 220],“+++” (>50 = +++)
20,152 (SLIRILQTI; listed as Homo sapiens) [compound 152],“+++” (>50 = +++)
21,270 (TVLPVPPLSV; listed as Homo sapiens) [compound 270],“+++” (>50 = +++)
22,272 (VLDELPPLI; listed as Homo sapiens) [compound 272],“+++” (>50 = +++)
23,100 (ILNNEVFAI; listed as Homo sapiens) [compound 100],“+++” (>50 = +++)

row,Substance,"Peptide Exchange (MHC class I binding score, peptide exchange yield)"
1,142 (QLDEPAPQV; listed as Homo sapiens) [compound 142],“++” (>20% = ++)
2,309 (ILYGTQFVL; listed as Homo sapiens) [compound 309],“+++” (>50 = +++)
3,140 (QIAELPATSV; listed as Homo sapiens) [compound 140],“+++” (>50 = +++)
4,297 (FLVEPQEDTRL; listed as Homo sapiens) [compound 297],“+++” (>50 = +++)
5,132 (LVYEAIIMV; listed as Homo sapiens) [compound 132],“+++” (>50 = +++)
6,301 (AASPIITLV; listed as Homo sapiens) [compound 301],“+++” (>50 = +++)
7,196 (YLLLQTYVL; listed as Homo sapiens) [compound 196],“+” (>10% = +)
8,382 (YLLPLLQRL; listed as Homo sapiens) [compound 382],“++++” (>75% = ++++)
9,349 (ALATHILSL; listed as Homo sapiens) [compound 349],“+++” (>50 = +++)
10,175 (FTVPRVVAV; listed as Homo sapiens) [compound 175],“+++” (>50 = +++)
11,328 (VLLPQETAEIHL; listed as Homo sapiens) [compound 328],“++++” (>75% = ++++)
12,90 (VIADLGLIRV; listed as Homo sapiens) [compound 90],“+++” (>50 = +++)
13,88 (ILDEIGADVQA; listed as Homo sapiens) [compound 88],“+++” (>50 = +++)
14,45 (FLPELPADLEA; listed as Homo sapiens) [compound 45],“+++” (>50 = +++)
15,280 (YTLDSLYWSV; listed as Homo sapiens) [compound 280],“+++” (>50 = +++)
16,287 (FLWEEKFNSL; listed as Homo sapiens) [compound 287],“++++” (>75% = ++++)
17,12 (ALGEDEITL; listed as Homo sapiens) [compound 12],“+++” (>50 = +++)
18,340 (KLLEEICNL; listed as Homo sapiens) [compound 340],“++++” (>75% = ++++)
19,210 (KLLVQDFFL; listed as Homo sapiens) [compound 210],“+++” (>50 = +++)
20,51 (FLVEAPHDWDL; listed as Homo sapiens) [compound 51],“++++” (>75% = ++++)
21,34 (YLPYIFPNI; listed as Homo sapiens) [compound 34],“+++” (>50 = +++)
22,381 (YLLEENKIKL; listed as Homo sapiens) [compound 381],“+++” (>50 = +++)
23,38 (FIMEGGAMV; listed as Homo sapiens) [compound 38],“+++” (>50 = +++)

row,Substance,"Peptide Exchange (MHC class I binding score, peptide exchange yield)"
1,214 (RLQELTEKL; listed as Homo sapiens) [compound 214],“+++” (>50 = +++)
2,122 (LLIPVVPGV; listed as Homo sapiens) [compound 122],“+++” (>50 = +++)
3,91 (ILDLNTYNV; listed as Homo sapiens) [compound 91],“+++” (>50 = +++)
4,145 (SALDTITTV; listed as Homo sapiens) [compound 145],“+++” (>50 = +++)
5,256 (QLLPVSNVVSV; listed as Homo sapiens) [compound 256],“+++” (>50 = +++)
6,180 (LLKDGPEIGL; listed as Homo sapiens) [compound 180],“++” (>20% = ++)
7,237 (GLQENLDVVV; listed as Homo sapiens) [compound 237],“++++” (>75% = ++++)
8,300 (ILLNPAYDVYL; listed as Homo sapiens) [compound 300],“+++” (>50 = +++)
9,21 (ALWAGLLTL; listed as Homo sapiens) [compound 21],“+++” (>50 = +++)
10,155 (SLMLEVPAL; listed as Homo sapiens) [compound 155],“+++” (>50 = +++)
11,62 (GIIDGSPRL; listed as Homo sapiens) [compound 62],“+++” (>50 = +++)
12,186 (VMDPTKILI; listed as Homo sapiens) [compound 186],“++++” (>75% = ++++)
13,94 (ILFPLRFTL; listed as Homo sapiens) [compound 94],“+++” (>50 = +++)
14,158 (SLPEAPLDV; listed as Homo sapiens) [compound 158],“+++” (>50 = +++)
15,1 (AIPPSFASIFL; listed as Homo sapiens) [compound 1],“+++” (>50 = +++)
16,125 (LLLEIGEVGKLFV; listed as Homo sapiens) [compound 125],“+++” (>50 = +++)
17,170 (TLTFRVETV; listed as Homo sapiens) [compound 170],“+++” (>50 = +++)
18,247 (KLKDRLPSI; listed as Homo sapiens) [compound 247],“++” (>20% = ++)
19,147 (SILETVATL; listed as Homo sapiens) [compound 147],“+++” (>50 = +++)
20,221 (ALVSTIIMV; listed as Homo sapiens) [compound 221],“+” (>10% = +)
21,293 (ALDIMIPMV; listed as Homo sapiens) [compound 293],“+++” (>50 = +++)
